For 1 molecule, binding result and Kd results are on record in PMC13276077.

Data set [1] deals with MeCP2 full-length, e2 isoform;histone octamer (Homo sapiens;, UniProt P51608;P0C0S8;P62807;P68431;P62805 1-486;2-130;2-126;2-136;2-103, |H2B T115C;H3.1 C96S;C110A). The data set can be described thus: EMSA; 20 mM HEPES pH 7.5, 75 mM NaCl, 125 mM KCl, 50 uM EDTA, 2.5 mM beta-mercaptoethanol, 5% glycerol, BSA, 1.58 uM 47 bp competitor DNA (nucleosome assays); absent w.
For data set [2], the target named is MeCP2 MBD;histone octamer, acidic patch mutant (Homo sapiens;Homo sapiens, UniProt P51608;P0C0S8;P62807;P68431;P62805 77-167;2-130;2-126;2-136;2-103, |H2A E61A;E91A;E92A;H2B E113A;H3.1 C96S;C110A). Kind of data set: EMSA; acidic patch mutant histone octamer; no competitor DNA; 20 mM HEPES pH 7.5, 75 mM NaCl, 125 mM KCl, 50 uM EDTA, 2.5 mM beta-mercaptoethanol, 5% glycerol, BSA, 1.58 uM 47 bp competitor DNA (nucleosome assays); absent w.

Data set [3] addresses MeCP2 full-length, e2 isoform;histone octamer, acidic patch mutant (Homo sapiens;Homo sapiens, UniProt P51608;P0C0S8;P62807;P68431;P62805 1-486;2-130;2-126;2-136;2-103, |H2A E61A;E91A;E92A;H2B E113A;H3.1 C96S;C110A). The data set is described as above.
Data set [4] concerns the target MeCP2 full-length, e2 isoform;histone octamer, H3Kc27me3 (Homo sapiens;Homo sapiens, UniProt P51608;P0C0S8;P62807;P68431;P62805 1-486;2-130;2-126;2-136;2-103, |H3.1 K27C (trimethyl-lysine analogue, Kc27me3);C96S;C110A). Kind of data set: EMSA; H3K27me3 histone octamer; no competitor DNA; 20 mM HEPES pH 7.5, 75 mM NaCl, 125 mM KCl, 50 uM EDTA, 2.5 mM beta-mercaptoethanol, 5% glycerol, BSA, 1.58 uM 47 bp competitor DNA (nucleosome assays); absent w.

The target of data set [5] is MeCP2 MBD;histone octamer, H3Kc27me3 (Homo sapiens;Homo sapiens, UniProt P51608;P0C0S8;P62807;P68431;P62805 77-167;2-130;2-126;2-136;2-103, |H3.1 K27C (trimethyl-lysine analogue, Kc27me3);C96S;C110A). Described as above.
For data set [6], the target named is MeCP2 full-length, e2 isoform;histone octamer, tailless H3 (Homo sapiens;Homo sapiens, UniProt P51608;P0C0S8;P62807;P68431;P62805 1-486;2-130;2-126;26-136;2-103, |H3.1 del1-24;A25C;C96S;C110A). The data set can be described thus: EMSA; H3-tailless histone octamer; no competitor DNA; 20 mM HEPES pH 7.5, 75 mM NaCl, 125 mM KCl, 50 uM EDTA, 2.5 mM beta-mercaptoethanol, 5% glycerol, BSA, 1.58 uM 47 bp competitor DNA (nucleosome assays); absent w.

Data set [7] addresses MeCP2 MBD;histone octamer, tailless H3 (Homo sapiens;Homo sapiens, UniProt P51608;P0C0S8;P62807;P68431;P62805 77-167;2-130;2-126;26-136;2-103, |H3.1 del1-24;A25C;C96S;C110A). Described as above.
Data set [8] deals with MeCP2 MBD;histone octamer (Homo sapiens;Homo sapiens, UniProt P51608;P0C0S8;P62807;P68431;P62805 77-167;2-130;2-126;2-136;2-103, |H3.1 C96S;C110A). The data set can be described thus: EMSA; no competitor DNA; 20 mM HEPES pH 7.5, 75 mM NaCl, 125 mM KCl, 50 uM EDTA, 2.5 mM beta-mercaptoethanol, 5% glycerol, BSA, 1.58 uM 47 bp competitor DNA (nucleosome assays); absent w.
Data set [9] has as its target MeCP2 full-length, e2 isoform;histone octamer (Homo sapiens;Homo sapiens, UniProt P51608;P0C0S8;P62807;P68431;P62805 1-486;2-130;2-126;2-136;2-103, |H3.1 C96S;C110A). Described as above.

B1: N601 nucleosome core particle -1 meCpG (nucleosome)
DNA 1: CAGGATGTATATATCTGACACGTGCCTGGAGACTAGGGAGTAATCCCCTTGGCGGTTAAAACGCGGGGGACAGCGCGTACGTGCGTTTAAGCGGTGCTAGAGCTGTCTACGACCAATTGAGCGGCCTCGGCACCGGGATTCTCCA
DNA 2: TGGAGAATCCCGGTGCCGAGGCCGCTCAATTGGTCGTAGACAGCTCTAGCACCGCTTAAACGCACGTACGCGCTGTCCCCCGCGTTTTAACCGCCAAGGGGATTACTCCCTAGTCTCCAGGCACGTGTCAGATATATACATCCTG
modifications: meCpG at -1
For B1, in data set [1], the binding result is reported as “no binding”. The Kd in data set [2] came out at 51.5 nM; in data set [3], 49.7 nM; in data set [4], 56.8 nM; in [5], 85.5 nM; in data set [6] it was 29.2 nM; in data set [7], 35.5 nM. Moreover, the dissociation constant (Kd) came out at 50.7 nM in data set [8] and 44.2 nM in data set [9].
